± gives the standard deviation of the averaged measurements.
Tested on: ATP
Assay: switch fluorescence ratio, 500 uM ATP over buffer (Cy3 cluster intensity, sum of 5 cycles each) (fold (ratio)); higher = stronger signal-on switching upon ATP binding; sequences stand for … in TCGTCGGCAGCGTCAGATGTGTATAAGAGACAGTTTTTTTTTTTTTTTTTTTTTTTTT…TC
Settings: aptamer strand: ATP DNA aptamer (quencher-CACCTGGGGGAGTATTGCGGAGGAAGG + anchor), 100 nM annealed; ATP concentration: 500 uM
Procedure, shortened: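 After annealing to 100 nM quencher-labelled ATP aptamer, Cy3-labelled switching-strand clusters on a modified Illumina MiSeq flow-cell were imaged in selection buffer. A second image followed after 15 min with 500 uM ATP at 22 °C, and five such buffer/ATP cycles were done, each separated by NaOH stripping and re-annealing. The fluorescence ratio, averaged per switch-domain sequence, is summed target-cycle over summed buffer-cycle Cy3 intensity per cluster, with clusters outside 100-1000 RFU excluded.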
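Also: ATP exposure 15 min at 22 °C before imaging.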

Row | Sequence | switch fluorescence ratio
1 | GATGGGCACT | 1.05 ± 0.029
2 | GGTTTCCTGT | 1.01 ± 0.043
3 | GTATTTGGAG | 1.0226 ± 0.00041
4 | GCAGGAGCAT | 1.03 ± 0.052
5 | CCAGCTGGT | 1.02 ± 0.042
6 | GGGGAAAGGC | 1.02 ± 0.018
7 | GTGAGGAGTA | 1.001 ± 0.0093
8 | AGAAGGGTAT | 0.976 ± 0.017
9 | GAATGAAGGT | 0.985 ± 0.013
10 | TTATTTGATA | 1 ± 0.034
11 | GCTGATCTTA | 0.998 ± 0.034
12 | GCATTGAAGC | 0.995 ± 0.011
13 | TTTGCCCTTT | 1.24 ± 0.32
14 | ATATCCGGGA | 1.03 ± 0.015
15 | GCTATGTGTA | 0.9748 ± 0.0051
16 | TTTGGGCAAG | 1.06 ± 0.043
17 | TTGCGTAAAA | 0.961 ± 0.047
18 | GCTGCCACTA | 1.003 ± 0.004
19 | AAGGGGTTAT | 1.02 ± 0.05
20 | GTGTTCTTGC | 0.9845 ± 0.0043
21 | AAGAAAATAC | 1 ± 0.024
22 | CGGGGACTTC | 1.02 ± 0.019
23 | TACTAACCTT | 1.43 ± 0.18
24 | TAGCGGAGGC | 1.03 ± 0.03
25 | TTAAGCCTGT | 0.969 ± 0.021

Row | Sequence | switch fluorescence ratio
26 | TTACAGTCGT | 1.03 ± 0.022
27 | ATACAAGTCT | 1.03 ± 0.059
28 | GAGGGTAAGA | 1.02 ± 0.062
29 | TGGTTAAAAG | 0.977 ± 0.051
30 | GAGATCGTGC | 0.96 ± 0.018
31 | CAGTCCCACG | 1.021 ± 0.0053
32 | GGACTACCGC | 1.14 ± 0.019
33 | ACGAGGTAGA | 1.02 ± 0.021
34 | ATCGTGTTGA | 0.971 ± 0.02
35 | TTTGATTCAC | 1.02 ± 0.041
36 | GGGGGCCGTC | 1.01 ± 0.09
37 | TGTAGGGGCA | 0.99 ± 0.014
38 | TTTCTAGGTG | 2.06 ± 0.23
39 | GATCAGTTTT | 0.977 ± 0.016
40 | TGGATTTCGC | 1 ± 0.027
41 | GGTTAAAGGA | 0.95798 ± 0.00066
42 | ATTCGAGCTG | 1.002 ± 0.0034
43 | GGGTGTGGG | 0.986 ± 0.05
44 | AAGCCGGCTA | 1.03 ± 0.023
45 | CCAAGCCTGT | 1.007 ± 0.0098
46 | TTTATTTGTA | 0.99 ± 0.035
47 | ATTAGCTCGC | 0.97 ± 0.023
48 | CCTTTGCTGT | 1.073 ± 0.0024
49 | GGGGAAATAT | 0.981 ± 0.024
50 | AGGCTGGAGG | 1.01 ± 0.038

Row | Sequence | switch fluorescence ratio
51 | GCTGGGAATG | 0.98 ± 0.033
52 | CTGAATTAGG | 0.988 ± 0.02
53 | ATTTTTGGCG | 0.9867 ± 0.0088
54 | TTTCATATGG | 0.994 ± 0.024
55 | ATTGAAGGGG | 0.975 ± 0.016
56 | GAACGTGGAG | 0.999 ± 0.02
57 | TTATACGGTT | 1.01 ± 0.012
58 | TGTGAGATTG | 1 ± 0.033
59 | GGGGTTTGAG | 1.001 ± 0.0057
60 | ATGGTGTAGG | 1.01 ± 0.012
61 | TAAGAGGAGA | 0.987 ± 0.017
62 | TTGAGCTGTG | 1.02 ± 0.019
63 | GTGGGTTATT | 0.999 ± 0.016
64 | TAATTGTGCT | 0.979 ± 0.026
65 | AGTTACGAAA | 1.11 ± 0.025
66 | TTCAGTCCGG | 1.01 ± 0.026
67 | CGATAATCGT | 1.002 ± 0.0098
68 | GGGTTTATCA | 1.03 ± 0.03
69 | TCGCGCGGTA | 1.007 ± 0.01
70 | AACTTTTACG | 1.074 ± 0.0069
71 | ATGGTAGTAA | 1.01 ± 0.024
72 | GAAGCAGGGG | 2.26 ± 0.74
73 | GTGATCGTCG | 1.01 ± 0.017
74 | ACAAGAGATA | 1.01 ± 0.015
75 | TTATGGTGAA | 0.956 ± 0.049

Row | Sequence | switch fluorescence ratio
76 | TTTAAAACGG | 1.01 ± 0.06
77 | ACAAATGCAA | 1.12 ± 0.037
78 | CAAGTAGCGA | 1.088 ± 0.0072
79 | GTTTTCTTCA | 1.04 ± 0.018
80 | TCTAGTGTGC | 0.9772 ± 0.0086
81 | ATAGGAGGGC | 0.935 ± 0.036
82 | CATCGAGATG | 1.01 ± 0.014
83 | TATGGGAGGT | 1.04 ± 0.029
84 | GCTGACGGTT | 0.997 ± 0.024
85 | TTTGCATTAG | 1.11 ± 0.028
86 | ATGTTTTGAG | 0.983 ± 0.043
87 | CGCTGAGTTT | 0.993 ± 0.021
88 | ATGTAAACGC | 1.03 ± 0.038
89 | CATCGCTGTG | 0.998 ± 0.039
90 | TGGATTACTT | 1.02 ± 0.026
91 | ACGGTTGTGG | 1.01 ± 0.026
92 | GGTTATAAGT | 0.975 ± 0.034
93 | AACTGCAACA | 1.22 ± 0.031
94 | TTGCATTTTT | 1.01 ± 0.034
95 | TATCAAAGGG | 1.023 ± 0.0067
96 | GGGGCCGAGG | 0.9573 ± 0.0075
97 | TTTTGGATCT | 0.982 ± 0.023
98 | TACGATGAGT | 0.996 ± 0.02
99 | TTGATCAGTG | 1.01 ± 0.015
100 | CAGTTTTGAT | 0.998 ± 0.019

Row | Sequence | switch fluorescence ratio
101 | AGTAGAATGG | 1.001 ± 0.0004
102 | TTGTGGGGGT | 0.998 ± 0.02
103 | ACATTTGACG | 1.05 ± 0.017
104 | GGAATAAGGT | 1.01 ± 0.031
105 | AGGAAAAAGT | 1.02 ± 0.039
106 | GTTTCTGTTA | 0.9574 ± 0.0033
107 | TTAGAATTAG | 1 ± 0.017
108 | GGGGGATAGG | 1 ± 0.025
109 | AGGCGATTTA | 0.976 ± 0.022
110 | TCAGTACATG | 0.992 ± 0.02
111 | AAGGGAGCAC | 1.02 ± 0.023
112 | AAAATGAGCC | 1.036 ± 0.00036
113 | GATTCTTATG | 1.03 ± 0.036
114 | GAGGTTCAGT | 0.989 ± 0.011
115 | TTGTTTGATA | 0.9883 ± 0.0073
116 | GGACAAGGGG | 0.962 ± 0.038
117 | ATGCATTGCG | 0.99777 ± 0.00081
118 | TGATTTGGCA | 1.02 ± 0.0023
119 | TTATTGGGCT | 1.01 ± 0.013
120 | TTAAGGGAAC | 0.9966 ± 0.0052
121 | TGCAGGGCAA | 1.02 ± 0.044
122 | TTTAATTTTT | 0.988 ± 0.036
123 | CACCCATTGC | 1.584 ± 0.0038
124 | GAGGTATTGG | 1.01 ± 0.022
125 | CAAACGCGCG | 0.997 ± 0.045

Row | Sequence | switch fluorescence ratio
126 | GAGATGGAAG | 0.993 ± 0.018
127 | AAATTTATTA | 1.03 ± 0.037
128 | GATTGTAGTG | 0.993 ± 0.032
129 | GGGCCATGGT | 0.9815 ± 0.0072
130 | AGGGGGGACT | 0.993 ± 0.011
131 | TGTGTTGCCT | 1.05 ± 0.015
132 | GCCAGTTTGG | 0.9916 ± 0.0052
133 | CTTGTAAAGG | 0.9825 ± 0.00043
134 | TGCATTTTGC | 1.08 ± 0.023
135 | TCGGCGAAGG | 1.01 ± 0.082
136 | TCGTATTTTC | 0.994 ± 0.058
137 | CCGGATGTTG | 0.987 ± 0.028
138 | CCAGGCGCTA | 1.611 ± 0.014
139 | GAAGACTACG | 1.04 ± 0.038
140 | GGGATTTGTG | 0.972 ± 0.01
141 | GGGCCTGATG | 1.01 ± 0.012
142 | GATCAATGGG | 0.997 ± 0.036
143 | TGACAGTGGG | 0.959 ± 0.04
144 | TTCATCTGCA | 2.19 ± 1.5
145 | TAACGTGGTG | 1.05 ± 0.019
146 | GGACTTGTGA | 0.997 ± 0.018
147 | GATATATCAG | 0.9771 ± 0.0017
148 | GGCTAATTTT | 1.02 ± 0.011
149 | CGAAGATGGG | 0.981 ± 0.03
150 | GGTCTACCGG | 1.01 ± 0.017

Row | Sequence | switch fluorescence ratio
151 | ATAATCGGCA | 1.01 ± 0.054
152 | ATTGTACAGT | 1.02 ± 0.025
153 | TTTTTGGTCG | 0.993 ± 0.086
154 | GGCATCGCCG | 0.954 ± 0.013
155 | GTTTTTATAG | 0.992 ± 0.014
156 | AGGGAAATGA | 0.987 ± 0.024
157 | AGCGGTAGGG | 1.022 ± 0.0082
158 | CTGTGGGCTG | 0.989 ± 0.04
159 | TTGTCGGCTT | 1.002 ± 0.0092
160 | ATGATACAGG | 1.08 ± 0.039
161 | TGGGTTGATT | 1.01 ± 0.031
162 | AGTTAACGGT | 1.18 ± 0.19
163 | GAGCATGGGA | 1.02 ± 0.012
164 | GGTTTGGTTC | 0.957 ± 0.083
165 | GAGGGGATCG | 0.967 ± 0.015
166 | GTCGTAAGAG | 0.98 ± 0.041
167 | TTGCGGGGTA | 0.978 ± 0.013
168 | CCTAATGGGC | 1.014 ± 0.0092
169 | ATTTAACCCG | 1.02 ± 0.044
170 | TATTCAACGG | 1.02 ± 0.028
171 | TAGCTTGGTG | 1.04 ± 0.015
172 | TTATAGTTGA | 0.9944 ± 0.0015
173 | TGTAGTATCG | 1.016 ± 0.0045
174 | AAATTCATGT | 0.996 ± 0.028
175 | ATTGGGGTTC | 1.01 ± 0.067

Row | Sequence | switch fluorescence ratio
176 | GTCGGGTTTG | 0.991 ± 0.014
177 | ATAATGTTTT | 1 ± 0.021
178 | GGGCAAGTGG | 0.959 ± 0.014
179 | TCGGTTTGTT | 1 ± 0.0029
180 | TAACCAATTT | 1.01 ± 0.018
181 | TGGGTATTGG | 1 ± 0.03
182 | ATGTGCTGCC | 0.983 ± 0.019
183 | TTAATCCAGT | 1.02 ± 0.035
184 | TCGGTCCGTT | 0.9492 ± 0.0027
185 | ATAGTGCTTG | 0.988 ± 0.046
186 | TCCTTGGGGA | 1.08 ± 0.086
187 | CGTGCTTTTC | 1.15 ± 0.22
188 | GGAGCTAGGG | 1.056 ± 0.0058
189 | TTGTGGTTGG | 0.994 ± 0.021
190 | CGGGTTTTAC | 1.01 ± 0.039
191 | TCCTGATTTT | 1.02 ± 0.037
192 | TGGTCCCTTG | 1.12 ± 0.16
193 | AGAATTTGTT | 1 ± 0.024
194 | GGGTGTGTGG | 1 ± 0.017
195 | GTGATTGGAG | 0.966 ± 0.025
196 | TGGGGATAGG | 1.01 ± 0.022
197 | GCATGGCTGC | 1.03 ± 0.036
198 | AGAACCGTGT | 0.989 ± 0.041
199 | TAGGGGGGGT | 1 ± 0.031
200 | ATAAGTGTGT | 0.958 ± 0.047

Source: the supplement of paper PMC10126150
